Results on 1 molecule are retold here after patent publication US20050042227A1.

The target of the test is LRP. As to the kind of experiment: cell-based or functional assay.

B1: RAP-IDU fusion (human RAP fused N-terminally to human alpha-L-iduronidase) (protein)
chain: SYSREKNQPKPSPKRESGEEFRMEKLNQLWEKAQRLHLPPVRLAELHADLKIQERDELAWKKLKLDGLDEDGEKEARLIRNLNVILAKYGLDGKKDARQVTSNSLSGTQEDGLDDPRLEKLWHKAKTSGKFSGEELDKLWREFLHHKEKVHEYNVLLETLSRTEEIHENVISPSDLSDIKGSVLHSRHTELKEKLRSINQGLDRLRRVSHQGYSTEAEFEEPRVIDLWDLAQSANLTDKELEAFREELKHFEAKIEKHNHYQKQLEIAHEKLRHAESVGDGERVSRSREKHALLEGRTKELGYTVKKHLQDLSGRISRARAEAETGEAPHLVHVDAARALWPLRRFWRSTGFCPPLPHSQADQYVLSWDQQLNLAYVGAVPHRGIKQVRTHWLLELVTTRGSTGRGLSYNFTHLDGYLDLLRENQLLPGFELMGSASGHFTDFEDKQQVFEWKDLVSSLARRYIGRYGLAHVSKWNFETWNEPDHHDFDNVSMTMQGFLNYYDACSEGLRAASPALRLGGPGDSFHTPPRSPLSWGLLRHCHDGTNFFTGEAGVRLDYISLHRKGARSSISILEQEKVVAQQIRQLFPKFADTPIYNDEADPLVGWSLPQPWRADVTYAAMVVKVIAQHQNLLLANTTSAFPYALLSNDNAFLSYHPHPFAQRTLTARFQVNNTRPPHVQLLRKPVLTAMGLLALLDEEQLWAEVSQAGTVLDSNHTVGVLASAHRPQGPADAWRAAVLIYASDDTRAHPNRSVAVTLRLRGVPPGPGLVYVTRYLDNGLCSPDGEWRRLGRPVFPTAEQFRRMRAAEDPVAAAPRPLPAGGRLTLRPALRLPSLLLVHVCARPEKPPGQVTRLRALPLTQGQLVLVWSDEHVGSKCLWTYEIQFSQDGKAYTPVSRKPSTFNLFVFSPDTGAVSGSYRVRALDYWARPGPFSDPVPYLEVPVPRGPPSPGNP
As for B1, the Kuptake ratio (fusion/enzyme), RAP-IDU against rhIDU, fibroblast (ratio (fusion/enzyme)) is 25; the Uptake ratio (fusion/enzyme), RAP-IDU against rhIDU, fibroblast, 5 nM (ratio (fusion/enzyme)) stood at 7; the Uptake ratio (fusion/enzyme), RAP-IDU against rhIDU, fibroblast, 50 nM (ratio (fusion/enzyme)) is 27; the Uptake ratio (fusion/enzyme), RAP-IDU against rhIDU, fibroblast, saturation (ratio (fusion/enzyme)) amounted to 43.
